The values that follow come from patent US20110151450.

Experiment in all cases: cleavage_in_vitro
Data set [1] concerns T1, PvuI-WT (Proteus vulgaris).
T1 sequence: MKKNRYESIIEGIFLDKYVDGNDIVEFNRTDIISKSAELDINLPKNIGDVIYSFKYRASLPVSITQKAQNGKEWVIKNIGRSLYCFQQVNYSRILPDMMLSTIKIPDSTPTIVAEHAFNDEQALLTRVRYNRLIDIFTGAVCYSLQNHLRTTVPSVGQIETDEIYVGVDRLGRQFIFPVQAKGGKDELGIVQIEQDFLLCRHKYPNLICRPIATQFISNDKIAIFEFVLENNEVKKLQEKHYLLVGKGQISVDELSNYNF
The conditions noted are these: NEB4, relative activity 12.5%.

For data set [2], the system named is T2, SpeI-WT (Sphaerotilus natans).
T2 sequence: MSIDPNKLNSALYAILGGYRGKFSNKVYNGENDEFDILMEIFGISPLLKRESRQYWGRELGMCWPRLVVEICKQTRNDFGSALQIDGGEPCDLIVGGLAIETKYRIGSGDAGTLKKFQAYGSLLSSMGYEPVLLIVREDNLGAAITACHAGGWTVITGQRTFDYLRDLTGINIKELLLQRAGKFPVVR
Conditions: NEB4, relative activity 50%.

Data set [3] relates to T3, ApoI-HF T77A/T96A (Arthrobacter protophormiae).
T3 sequence: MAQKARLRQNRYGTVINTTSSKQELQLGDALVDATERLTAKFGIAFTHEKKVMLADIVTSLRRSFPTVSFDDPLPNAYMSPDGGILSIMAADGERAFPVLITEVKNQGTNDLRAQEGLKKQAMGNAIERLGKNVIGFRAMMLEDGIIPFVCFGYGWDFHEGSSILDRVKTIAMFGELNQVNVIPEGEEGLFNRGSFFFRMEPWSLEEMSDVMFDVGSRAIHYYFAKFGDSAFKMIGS
The conditions noted are these: NEB4, relative activity 50%.

Data set [4] relates to T4, PmeI-HF E86A (Pseudomonas mendocina).
T4 sequence: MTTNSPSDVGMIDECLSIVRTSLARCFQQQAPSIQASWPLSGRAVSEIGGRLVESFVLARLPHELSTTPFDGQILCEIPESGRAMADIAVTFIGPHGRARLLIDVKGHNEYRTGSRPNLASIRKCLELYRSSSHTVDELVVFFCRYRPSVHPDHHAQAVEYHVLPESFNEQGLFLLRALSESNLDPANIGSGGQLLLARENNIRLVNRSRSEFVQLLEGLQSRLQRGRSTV
Conditions: NEB4, relative activity 100%.

For data set [5], the system named is T5, NsiI-HF F376A (Neisseria sicca).
T5 sequence: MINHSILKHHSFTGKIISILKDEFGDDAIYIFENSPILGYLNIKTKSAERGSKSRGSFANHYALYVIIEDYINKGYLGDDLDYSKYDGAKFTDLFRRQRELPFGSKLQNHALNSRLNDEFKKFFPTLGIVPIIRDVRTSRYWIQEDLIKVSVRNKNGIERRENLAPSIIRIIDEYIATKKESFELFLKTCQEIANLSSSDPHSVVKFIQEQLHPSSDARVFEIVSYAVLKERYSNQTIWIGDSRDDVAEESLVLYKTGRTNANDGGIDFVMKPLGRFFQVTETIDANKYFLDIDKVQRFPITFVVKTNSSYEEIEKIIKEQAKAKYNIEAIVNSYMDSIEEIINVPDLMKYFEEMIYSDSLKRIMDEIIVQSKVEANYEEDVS
Conditions: NEB4, relative activity 100%.

Data set [6] deals with T6, BsaWI-HF Q261A (Bacillus stearothermophilus).
T6 sequence: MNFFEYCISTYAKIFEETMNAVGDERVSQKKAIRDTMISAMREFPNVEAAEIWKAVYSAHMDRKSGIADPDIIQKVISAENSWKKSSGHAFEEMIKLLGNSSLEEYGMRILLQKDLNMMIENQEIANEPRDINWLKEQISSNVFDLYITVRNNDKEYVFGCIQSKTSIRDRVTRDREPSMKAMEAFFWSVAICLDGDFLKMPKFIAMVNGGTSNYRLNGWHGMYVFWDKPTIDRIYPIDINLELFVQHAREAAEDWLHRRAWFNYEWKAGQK
Conditions: NEB4, relative activity 100%.

Data set [7] deals with T7, SmaI-WT (Serratia marcescens) (UniProt P14229).
T7 sequence: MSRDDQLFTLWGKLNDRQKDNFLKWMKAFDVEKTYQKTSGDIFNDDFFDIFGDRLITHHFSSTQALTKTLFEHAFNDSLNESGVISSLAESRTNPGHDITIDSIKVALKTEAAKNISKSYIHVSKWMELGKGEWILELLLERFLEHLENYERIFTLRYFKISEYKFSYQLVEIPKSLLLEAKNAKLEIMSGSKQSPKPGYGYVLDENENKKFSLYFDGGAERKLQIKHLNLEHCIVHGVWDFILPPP
The conditions noted are these: NEB4, relative activity 100%.

The target in data set [8] is T8, BglII-HF N208A (Bacillus globigii) (UniProt Q45488).
T8 sequence: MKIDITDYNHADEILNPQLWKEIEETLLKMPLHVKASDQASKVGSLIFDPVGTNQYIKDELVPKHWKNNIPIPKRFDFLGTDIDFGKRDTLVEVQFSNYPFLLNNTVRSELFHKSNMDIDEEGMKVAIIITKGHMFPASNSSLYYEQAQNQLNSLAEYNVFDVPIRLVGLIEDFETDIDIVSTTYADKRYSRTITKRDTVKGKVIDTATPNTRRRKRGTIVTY
Conditions: NEB4, relative activity 25%.

Data set [9] deals with T9, PvuI-HF P154A (Proteus vulgaris).
T9 sequence: T1 sequence with P154A
Conditions: NEB4, relative activity 100%.

Data set [10] concerns T10, BmtI-WT (Bacillus megaterium).
T10 sequence: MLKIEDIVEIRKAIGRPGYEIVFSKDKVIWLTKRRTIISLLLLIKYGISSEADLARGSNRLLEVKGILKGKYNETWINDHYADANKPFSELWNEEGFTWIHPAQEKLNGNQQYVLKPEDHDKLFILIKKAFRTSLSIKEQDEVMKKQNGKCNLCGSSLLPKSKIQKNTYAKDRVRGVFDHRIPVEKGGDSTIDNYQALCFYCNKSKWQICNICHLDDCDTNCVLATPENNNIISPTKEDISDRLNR
Conditions: NEB4, relative activity 100%.

The subject of data set [11] is T11, SpeI-HF P65A (Sphaerotilus natans).
T11 sequence: T2 sequence with P65A
The conditions noted are these: NEB4, relative activity 100%.

Substitutions are numbered along the chain they refer to.

With pXba plasmid, the activity (fidelity index) in data set [1] is 32; in data set [2], 500; in data set [3], greater than 2000; in data set [4], greater than 8000; in [5], greater than 8000; in data set [6] it was greater than 4000. Further, the activity (fidelity index) in [7] is 64; in [8], greater than 32000; in data set [9], greater than 16000; in data set [10], 16; in [11] it was greater than 8000.
